Laboratory results reported in article PMC4510971 (2015).
Where a chain is given by its changes, count along the chain named. Names may count otherwise.

B1: UBN1(92–175) E147A (protein)
chain: NDEEKERHKVEALARKFEEKYGGKKRRKDRIQDLIDMGYGYDESDSFIDNSEAYDALVPASLTTKYGGFYINSGTLQFRQASES
B2: UBN1(92–175) Y130A (protein)
chain: B1 chain with Y39A, A56E
B3: UBN1(92–175) L148A (protein)
chain: B1 chain with A56E, L57A
B4: UBN1(92–175) A144I (protein)
chain: B1 chain with A53I, A56E
B5: UBN1(92–175) G129A (protein)
chain: B1 chain with G38A, A56E
B6: UBN1(92–175) Q123A (protein)
chain: B1 chain with Q32A, A56E
B7: UBN1(92–175) (domain or fragment)
chain: B1 chain with A56E
B8: UBN1(92–175) D146A (protein)
chain: B1 chain with D55A, A56E
B9: UBN1(92–175) M128A (protein)
chain: B1 chain with M37A, A56E
B10: UBN1(92–175) L125A (protein)
chain: B1 chain with L34A, A56E
B11: UBN1(92–175) E143A (protein)
chain: B1 chain with E52A, A56E
B12: UBN1(92–175) D127A (protein)
chain: B1 chain with D36A, A56E
B13: UBN1(92–175) I126A (protein)
chain: B1 chain with I35A, A56E
B14: UBN1(92–175) I122A (protein)
chain: B1 chain with I31A, A56E
B15: UBN1(92–175) D124A (protein)
chain: B1 chain with D33A, A56E
B16: UBN1(92–175) G131A (protein)
chain: B1 chain with G40A, A56E
B17: UBN1(92–175) Y145A (protein)
chain: B1 chain with Y54A, A56E
B18: UBN1(92–175) S137A (domain or fragment)
chain: B1 chain with S46A, A56E
B19: UBN1(122–175) (domain or fragment)
chain: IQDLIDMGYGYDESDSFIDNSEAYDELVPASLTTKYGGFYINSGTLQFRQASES
B20: UBN1(92–148) (domain or fragment)
chain: NDEEKERHKVEALARKFEEKYGGKKRRKDRIQDLIDMGYGYDESDSFIDNSEAYDEL

biological target: T1, H3.3/H4 (human | X. laevis, UniProt P84243 1-136; P62799 1-103); assay: FP

Binder | IC50
B1 | 22.9 µM
B2 | 14.4 µM
B3 | 19.6 µM
B4 | 16.3 µM
B5 | 67.8 µM
B6 | 13.8 µM
B7 | 16.6 µM
B8 | 23 µM
B9 | 22.6 µM
B10 | 15.1 µM
B11 | 29.3 µM
B12 | 21.1 µM
B13 | 13.8 µM
B14 | 16.9 µM
B15 | 19.6 µM
B16 | 19.9 µM
B17 | 16.4 µM
B18 | 16.2 µM

biological target: T1, H3.3/H4; assay: ITC

Binder | Kd
B19 | 14.6 µM
B20 | 16.5 µM

biological target: T1, H3.3/H4; assay: ITC; remark: another data set of the same source

Binder | Kd
B7 | 6.9 µM

biological target: T1, H3.3/H4; assay: FP; remark: another data set of the same source

Binder | IC50
IQDLIDMGYGYDESDSFIDNSEAYDEL [UBN1(122–148) peptide] | 46.4 µM

biological target: H3.3(G90M)/H4 (human | X. laevis, UniProt P62799 1-103); assay: ITC

Binder | Kd
IQDLIDMGYGYDESDSFIDNSEAYDEL [UBN1(122–148) peptide] | 115 µM
